Results as given in article PMC314469, “Protein Interaction Networks by Proteome Peptide Scanning” (PLoS Biology, 2004).

Experiments:
[1] = biological target: T1, amphyphisin SH3 (AMPH_HUMAN), P49418; experiment: SPOT array
T1 chain: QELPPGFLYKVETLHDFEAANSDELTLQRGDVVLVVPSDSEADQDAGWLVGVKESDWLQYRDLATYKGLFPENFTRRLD

[2] = biological target: endophilin SH3 (SH3G2_HUMAN), Q99962; experiment: SPOT array

Row | Binder | normalised SPOT signal, Boehringer light units (BLU); mean over the file's lines of this peptide [1] | normalised SPOT signal, Boehringer light units (BLU); mean over the file's lines of this peptide [2]
1 | MKVHIKRPEMTSSS [Q9GZZ2 864-877] | 27.3 | 163
2 | MLQAPIRPPKPQSS [O95600 103-116] | 1050 | 2740
3 | MNMTPRRPGPTRKH [P10747 192-205] | 76.1 | 2530
4 | MQFSIRRPKLPSSE [Q96DH7 35-48] | 118 | 532
5 | MTSSLQRPWRVPWL [Q13873 1-14] | 506 | 227
6 | MRKYPNRPSKTPPH [P18146 321-334] | 222 | 1570
7 | MNGLPPRPPLPESL [Q15428 237-251] | 58.1 | 9000
8 | NAALFPRPERYNPQ [P19099 413-426] | 699 | 63.6
9 | MLAMPRRPDPVFLN [Q13808 54-67] | 57.7 | 214
10 | MSSAPRRPAKGADS [Q99654 1-14] | 178 | 222
11 | AQQLLKRPRGPSPL [Q9Y2K2 611-624] | 55.3 | 75.7
12 | NSQAPRRPWLASHM [O43284 274-287] | 88.2 | 6860
13 | ARAALRRPLSGQAL [Q96GZ7 12-25] | 87.1 | 85.3
14 | MWGFLKRPVVVTAD [Q9Y6A1 1-14] | 37.8 | 121
15 | ARARPRRPREETLT [P53539 138-151] | 42.3 | 181
16 | MVPGPARPPGSSWD [Q9BRN8 20-34] | 45.4 | 33.6

Row | Binder | normalised SPOT signal, Boehringer light units (BLU); mean over the file's lines of this peptide [1] | normalised SPOT signal, Boehringer light units (BLU); mean over the file's lines of this peptide [2]
17 | MLDMFKRPTDPPEY [Q13423 581-594] | 34.5 | 56.5
18 | MTVAIRRPGVPGAP [Q96IB4 40-53] | 55.2 | 80.3
19 | AAQPPQKPPASYFA [O15399 995-1009] | 45.4 | 125
20 | MLANPRRPIAQWHT [P21579 394-407] | 108 | 122
21 | MLLRPRRPPPLAPP [O75833 1-14] | 2650 | 5190
22 | MLANPRRPIAQWHS [O00445 360-373] | 33.7 | 551
23 | MSTPLRRPSASETV [Q9P2M8 940-953] | 18.3 | 228
24 | NSFIPKRPIPTIKD [Q96TH1 910-923] | 49.2 | 556
25 | NSEHFHRPLRRSEA [O15050 583-596] | 512 | 199
26 | MTTTPERPRRGIPG [P27708 1830-1843] | 9560 | 2030
27 | MSLLLRRPPGREAY [P25705 324-337] | 15.9 | 63.4
28 | MLLLPPRPPHPRSS [Q9NPP7 87-101] | 3000 | 11500
29 | MLLSPRRPTVEKRA [O94947 263-276] | 344 | 8300
30 | MLLRLARPAKLSEL [Q92876 108-121] | 346 | 342
31 | NDRFPFRPSRGRPT [Q9Y3I1 502-515] | 2600 | 4510
